Source: the supplement of paper PMC9732359
± gives the uncertainty stated by the source.

Assay: protein stability index of a GFP-peptide fusion (yeast GPS) (PSI 1-4); higher = more stable; sorted into four equal gates, so the index is relative within each strain
Procedure, shortened: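 The protein stability index combines read frequencies across sorting gates, each weighted by its gate number and then summed. To obtain those frequencies, a pooled yeast library of GFP fusions to tiled 17-residue yeast protein peptides, on a plasmid also expressing Cherry, was grown to mid-log phase in leucine-free medium. The cells were sorted into four equal gates by GFP/Cherry ratio before plasmid amplification by PCR and Illumina sequencing.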

Sequence | protein stability index (doa10∆) | protein stability index (pdr5∆) | protein stability index (san1∆) | protein stability index (ubr1∆)
LVAIFGGQGNTDDYFEE [FAS1] | 3.15 ± 0.12 | 3.48 ± 0.083 | 3.26 ± 0.065 | 3.23 ± 0.064
LVASAKGLQTVVVEEDA [RPL31A] | 2.48 ± 0.091 | 2.51 ± 0.1 | 2.54 ± 0.087 | 2.42 ± 0.085
LVCGNDSSYQDIFAVNL [RET1] | – | 2.04 ± 0.25 | 2.24 ± 0.26 | –
LVDDENEPSQSLISTRN [BRN1] | 3.22 ± 0.058 | 3.4 ± 0.064 | 3.19 ± 0.047 | 3.15 ± 0.057
LVELMFIRSTNSWFDVT [FAS1] | 1.65 ± 0.092 | 1.98 ± 0.072 | 1.72 ± 0.2 | 1.51 ± 0.044
LVETCLNDLVESSFIEI [BRR2] | 3.03 ± 0.053 | 2.75 ± 0.063 | 2.69 ± 0.085 | 2.46 ± 0.054
LVFILAVVGNNMLLDPA [RRP42] | 1.56 ± 0.088 | 1.39 ± 0.076 | 1.94 ± 0.12 | 1.81 ± 0.063
LVLDLLTWLSSFSVCKI [IRR1] | 2.21 ± 0.06 | 1.59 ± 0.05 | 1.65 ± 0.073 | 1.71 ± 0.039
LVLGEVSKKELYAIKKV [BRR2] | 1.68 ± 0.073 | 2.37 ± 0.096 | 3.13 ± 0.079 | 1.83 ± 0.08
LVQLFLWDSKELEQLVE [RPN3] | 2.64 ± 0.13 | 2.78 ± 0.084 | 2.08 ± 0.28 | 2.85 ± 0.083
LVSDSEIIDLNLHSFTK [POP6] | 2.62 ± 0.072 | 2.81 ± 0.069 | 2.31 ± 0.07 | 2.71 ± 0.048
LVSVVEAFIASGITDPY [FAS2] | 1.42 ± 0.041 | 1.39 ± 0.042 | 1.67 ± 0.072 | 1.85 ± 0.035
LVTCEGSEEKAFVPKKR [SRP54] | 2.19 ± 0.12 | 1.85 ± 0.11 | 1.62 ± 0.13 | 1.61 ± 0.066
LVVIRFGRKNDRQCMIM [DIB1] | 2.4 ± 0.061 | 2.55 ± 0.055 | 2.33 ± 0.073 | 2.79 ± 0.038
LWELALAFIPNILALNL [YML031W/NDC1] | 2.01 ± 0.069 | 1.86 ± 0.048 | 1.85 ± 0.083 | 1.34 ± 0.061
LYKLNDKIAVAVAGLTA [PRE9] | 2.29 ± 0.056 | 2.14 ± 0.052 | 2.18 ± 0.095 | 2.31 ± 0.043
LYQIDYLGTKVELPYGA [PRE1] | 1.72 ± 0.089 | 1.81 ± 0.079 | 1.62 ± 0.099 | 2.23 ± 0.073
LYRLSTPLRDEVTDKNY [PRP8] | 3.13 ± 0.096 | 2.88 ± 0.066 | 3.02 ± 0.067 | 3.11 ± 0.059
LYSVKFAPAHLGLKLAC [YGL100W/SEH1] | 2.73 ± 0.074 | 1.98 ± 0.049 | 2.72 ± 0.072 | 2.79 ± 0.046
MAAEKILTPESQLKKSK [RPL7A] | 3.07 ± 0.11 | 3.28 ± 0.28 | 3.25 ± 0.2 | –
MAGKVLILTSHNMKAYY [BRR2] | 2.1 ± 0.06 | 2.46 ± 0.058 | 1.6 ± 0.094 | 2.4 ± 0.068
MAKQLIRLANESSELNK [CSN12] | 3 ± 0.08 | 2.62 ± 0.064 | 2.96 ± 0.079 | 2.63 ± 0.073
MAKRTKKVGITGKYGVR [RPL43A] | 3.36 ± 0.11 | 3.34 ± 0.094 | 3.09 ± 0.1 | 3.55 ± 0.082
MAMNITPRLYTDRSRDF [RPB2] | 2.93 ± 0.089 | 3 ± 0.087 | 2.96 ± 0.096 | 3.2 ± 0.087
MAQRVTFRRRNPYNTRS [RPL34A] | 1.55 ± 0.043 | 1.82 ± 0.047 | 1.54 ± 0.072 | 1.77 ± 0.043
MARGPKKHLKRLAAPHH [RPS4A] | 2.9 ± 0.13 | 3 ± 0.087 | 3.1 ± 0.069 | 3.05 ± 0.054

Sequence | protein stability index (doa10∆) | protein stability index (pdr5∆) | protein stability index (san1∆) | protein stability index (ubr1∆)
MATNKIETLDPALIRPG [RPT2] | 3.23 ± 0.1 | 3.31 ± 0.12 | 2.96 ± 0.081 | 3 ± 0.075
MAVGKNKRLSRGKKGLK [RPS1B] | 1.49 ± 0.13 | 1.62 ± 0.083 | 1.64 ± 0.14 | 1.46 ± 0.12
MAVKTGIAIGLNKGKKV [RPL36B] | – | 1.49 ± 0.2 | – | –
MCHIVRKFHELNDHIDD [GRR1] | 2.13 ± 0.053 | 2.31 ± 0.071 | 2.18 ± 0.079 | 1.72 ± 0.04
MDAYSTRPLTLSHGSLE [FAS1] | 3.18 ± 0.11 | 3.15 ± 0.1 | 3.05 ± 0.093 | 3.3 ± 0.087
MDEMDNVIRSLEQEYRL [RMP1] | 1.81 ± 0.064 | 1.21 ± 0.025 | 1.71 ± 0.15 | 2.05 ± 0.072
MDFFNLNNNNNNNNTTT [SWI1] | 2.97 ± 0.072 | 3.33 ± 0.081 | 2.53 ± 0.13 | 2.35 ± 0.067
MDFLNSMENTPKVPVSA [GAL11] | 2.42 ± 0.094 | 2.45 ± 0.11 | 2.1 ± 0.13 | 2.37 ± 0.065
MDQDNNNHNDSNRLHPP [GRR1] | 2.73 ± 0.062 | 2.79 ± 0.062 | 2.69 ± 0.064 | 2.9 ± 0.04
MDVDIGCYFEEKRYDDK [CSN12] | 3.42 ± 0.087 | 3.19 ± 0.15 | 3.01 ± 0.11 | 3.33 ± 0.15
MEELGIVTPVEKAVEEK [RPT3] | – | 1.11 ± 0.094 | – | 1.47 ± 0.17
MEGDDLFDEFGNLIGVD [SNU114] | 3.37 ± 0.2 | – | – | –
MEQCKQRYQDLSQQQKD [YIL149C/MLP2] | 3.33 ± 0.086 | 3.3 ± 0.074 | 2.95 ± 0.067 | 2.95 ± 0.048
MEWPKDMLKYKEDEPVV [ITC1] | 2.75 ± 0.27 | 3.12 ± 0.14 | 3.36 ± 0.09 | 3.67 ± 0.17
MFANMKVLGVKDMSPIL [LRP1] | 1.84 ± 0.069 | 1.52 ± 0.046 | 1.41 ± 0.072 | 1.46 ± 0.047
MFDAFVSFYFEDGTIES [SIN4] | 2.33 ± 0.078 | 2.76 ± 0.062 | 2.52 ± 0.059 | 3.07 ± 0.062
MFFIKDLSLNITLHPSF [RPB7] | – | 1.97 ± 0.16 | – | 2.24 ± 0.26
MGEAQTGANFDDVERGV [REC8] | 3.37 ± 0.093 | 2.98 ± 0.11 | 3.52 ± 0.17 | 3.24 ± 0.081
MGKSHGYRSRTRYMFQR [RPL21A] | 3.15 ± 0.094 | 3.25 ± 0.093 | 3.3 ± 0.056 | 3.32 ± 0.055
MGLGKTLQTISFLGYLR [ISW2] | 2.45 ± 0.044 | 2.06 ± 0.054 | 1.67 ± 0.087 | 2.13 ± 0.056
MGNTKVHCRISCQIAQP [RRP45] | 1.64 ± 0.059 | 2.04 ± 0.079 | 1.56 ± 0.1 | 1.91 ± 0.056
MHLMALHIHGSSNPLGI [COB] | 2.31 ± 0.07 | 2.1 ± 0.059 | 2.1 ± 0.052 | 2.32 ± 0.046
MKLDDSSKTRNVLNRIQ [ITC1] | 1.78 ± 0.082 | 1.3 ± 0.051 | 2.71 ± 0.12 | 1.38 ± 0.056
MKPKAEKESDDGLLEYL [SMC4] | 3.58 ± 0.17 | 3.37 ± 0.16 | 3.31 ± 0.18 | –
MKRADKFKDMGIRAPKG [RPT5] | 2.89 ± 0.1 | 3.38 ± 0.16 | 2.98 ± 0.13 | 3.3 ± 0.12
MKSLLTELSNKETTIEK [YIL149C/MLP2] | 3.23 ± 0.13 | 3 ± 0.12 | 3.41 ± 0.07 | 3.25 ± 0.062
